Assay results: the DeepSol protein solubility set

Test: soluble on expression in E. coli; label from the status in PepcDB or PDB records

Soluble on expression in E. coli, soluble:
WYGSPQFDGKYVHWDHPLLPHWDPKVASSYSTGRHQPPEDIGANFYPALGPYSSRDPAVLEEHMRQLRMAAVGVLAVSWYPRSMKDDNGEEIDSLLPLILDAADKYQLKVLYNLYVFKNVICINKYV, MSLQWKPAGDKIRTFWAEKVDVNNVLPEYPRPIMERSDWQNLNGLWNYAVLPLGQSAPTTFDGKILVPFAIESSLSGVGKTLGMEKELWYQRAFNIPSSWRGKRVLLHFGAVDWKTEVWVNNIKVGEHTGGFTPFTFDVTEALEKSTNTLTVKVWDPTDKGFQPRGKQVSNPRGIWYTPVSGIWQTVWLEPVSEHYIAGIKTTPDIDTNKIKVKVETDSNRQSDRLEVKVFDGKHLVAMGTSINGLPVEIPMPADAKLWSPDSPFLYQMEVSLISAGKLVDQIKSYVAMRKYSIKRDEHGIVRLQLNNKDLFQFGPLDQGWWPDGLYTAPTDEALRYDIEKTKDFGFNMIRKHIKVEPARWYTYCDQIGLIVWQDMPSGDKSPEWQNRKYFEGTELTRSAESEETYRKEWKEVIDCLYSYPCIGTWVPFNEAWGQFKTQEIAEWTKQYDPSRLVNPASGGNHYTCGDMLDLHHYPGPEMFLYDAQRATVLGEYGGIGLVLKDHLWEPNRNWGYIQFNTSAEATAEYLKYAGILKDMISRGFSAAVYTQTTDVEVEVNGLMTYDRKVIKLDESKLKKMNTEICNSLKEGHHHHHH, GPGSMASNITAERYEQLKKERTFHKFTYRGLEIDPLLALSEEEFKALVHARARRNMNRHADRRPPVLLKRLREAKKHVKVGEKPKAVKTHLRDVVITPEMVGSVVAIYNGHQFNAVEIKGEMIGHYLGEFSMSYRPVLHGRPGVGATHSSRFIPIK

Soluble on expression in E. coli, not soluble:
MGSDKIHHHHHHMGYAYLRGLRNARLQNNNDETSTVFRSCSVPTFQKMRSAYGRRVVKDVFAPNGGVFINRLVEYVTGQGHDFENMLAQKLAISEPLSSSAQVLPVYEHSLVFGLAERVCNDTSIGYALAYQCTLRDAGLVGYAVSASETAGEALYTLSRLSNVFEVVSASASGGLVDLRWDFGSQGKLDLRHWSEFIATLLVRSLKTLCTGAVAPVGVEFTHTAPSSSEQAVLAFGVKPTYRGRLNRLTFREQDLRQPLRSADAGLLRLLLEHAELLRRRPDRNSNDLSITVERLIMDGMSEGDASLAQVAESLDMSQRTLSRKLASEGTSFFAILEGVRKSLALRYLQQNEKSLSEISFALGYSSLSSFNDAFRRWYDQSPGSYRSDALKEAAVKS, MTNLTLDVNIIDFPSIPVAMLPHRCSPELLNYSVAKFIMWRKETGLSPVNQSQTFGVAWDAPATTAPEAFRFDICGSVSEPIPDNRYGVSNGELTGGRYAVARHVGELDDISHTIWGIIRHWLPASGEKMRKAPILFHYTNLAEGVTEQRLETDVYVPLA, MGSDKIHHHHHHMALIITKKAADLPKPKKPVIGLALGSGAAKGWAHIGVLNGLAKLGIFPDKVAGCSVGALVGAAYANDNLDEIEKWVRGFSSWDVLGLMDIRWRKGGIINGEKVFEVLSSRVGALKIEQLKRAFAAVATDLYSGQEIWFREGDLRHAVRASCSMPGFLPPVQQDDRWLVDGAVVNPVPVSLCRAMGVDLVIAVDLNGHRRGQMMMLPEQVVSHQAEKSQTVTEKPQLESGFMDLWGKSKEYLSGLTEKFSLGVNSHPGMLAVMSQSMDILEQRHKRARLMGDPPDICIVPQVFDIGTMEFHRAAEAIAAGEQAVENISHLLKASIGDFDSAPQR, MDTLFSLKVFRQVVQSGGFTRAADALGISTAMASKHVSHLENTVQAKLLHRNSRNLSLTEAGEEYYRQCSYALDTLDDAAQKAAGGTEKPQGLLRVTMPLWFAGSQICNWLAEYRERYPEVALELILDNRHVDLIAEGVDLALRVSQTLSPSLIARPLAEIEFALLASPDFLRRNGVPETPEEVAGLPAVLPTYTNQQKLDLTRKSDGKKYRLELTPVIRTDNTLMMREMIKAGACIGYQPLWAAEHDLRCGTLVRLLPGYAVPTDRLNAVYADRAFLSAKVRSFIDFLNEKIASRKGCRNAV, MGSDKIHHHHHHAKTTTATTTQASVKKQTYTILSSSFYKTAKTYHTKDAKPVVYKAVMGADRPTMTLTAKGKLKAGTTYKVTKQVKVKINAKKSQKYSYVKGQGWVVSSKLTAGKFKAASGVKKTATKYTIVSVTALKKAKTVHTKDARPVVYKAAVAADRPTMTLTTNGKLKAATTYKVTKQAKLKNAAKKTVAFSYVSGHGWVLQRDLTNGQFMNAD
